Test results: PMC9454738, “An FDA-Approved Antifungal, Ketoconazole, and Its Novel Derivative Suppress tGLI1-Mediated Breast Cancer Brain Metastasis by Inhibiting the DNA-Binding Activity of Brain Metastasis-Promoting Transcrip”

Target: N-tGLI1 (N-terminal truncated GLI1) (UniProt P08151-2 1-390)
Test: EMSA; no drug; 5X binding buffer as printed: 50 mM Tris pH 7.5, 50 mM NaCl, 200 mM KCl, 5 mM MgCl2, 10 mM EDTA, 5 mM DTT, 250 ug/mL BSA, 25% glycerol; 50 ng/uL poly dI-dC; ~600 ng protein, 5 pmol probe in 20 uL; 20 min on ice (drug tests: 30 min preincubation on ice for GLI1 or at RT for N-tGLI1, then 30 min with probe); 6% TBE gel
Settings: protein: recombinant; tags: MBP tag cleaved with HRV 3C protease; label: 5' 6-FAM on both strands; blunt

Chain of N-tGLI1 (N-terminal truncated GLI1) (P08151 other isoform, or with tags, fused parts or gaps): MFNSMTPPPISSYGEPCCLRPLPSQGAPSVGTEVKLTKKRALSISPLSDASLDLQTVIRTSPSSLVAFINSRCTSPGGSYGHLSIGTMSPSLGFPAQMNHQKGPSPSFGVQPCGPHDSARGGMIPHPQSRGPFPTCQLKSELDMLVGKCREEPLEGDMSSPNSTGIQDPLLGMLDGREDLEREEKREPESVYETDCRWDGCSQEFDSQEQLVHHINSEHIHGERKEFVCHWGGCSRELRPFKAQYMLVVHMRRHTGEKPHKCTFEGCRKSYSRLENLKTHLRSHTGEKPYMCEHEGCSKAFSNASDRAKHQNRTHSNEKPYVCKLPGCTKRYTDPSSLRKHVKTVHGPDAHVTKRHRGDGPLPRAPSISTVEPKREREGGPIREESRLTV

B1: GLI1/tGLI1 consensus probe (dsDNA)
DNA 1: CGAAGAGACCACCCAGGTAGCT
DNA 2: AGCTACCTGGGTGGTCTCTTCG
B1: binds.
